Laboratory results reported in publication PMC12611452.

Target: PGDH3-mCherry (protease-free, released from PGDH3-mCherry-TEV-mVenus by TEV cleavage) (Arabidopsis thaliana) (UniProt Q9LT69)
Assay: mass photometry; TwoMP instrument, 5 nM protein in PBS, 60 s movies

Substance “PGDH3-mCherry (protease-free, released from PGDH3-mCherry-TEV-mVenus by TEV cleavage) (from UniProt Q9LT69 39-588) (enzyme)” has a stoichiometry N of 2.
